Source: patent publication EP4792821A2 (Beijing Youcare Kechuang Pharmaceutical Technology Co., Ltd., dated 2026)
Positions count from the first letter of the chain named. *1 amine or outer side, *2 acyl side, *3 side chain or, on linkers, in order; H or OH if unused. Where no end group is shown, it is not given here. Side-chain parts run from the residue outwards. The star is where a group is joined. Succinyl(4-O-cholesteryl) = CC(C)CCC[C@@H](C)[C@H]1CC[C@H]2[C@@H]3CC=C4C[C@@H](OC(=O)CCC(=O)*)CC[C@]4(C)[C@H]3CC[C@]12C; Suc = O=C(CCC(=O)[*:2])[*:1]

B1: Compound 18 (peptide)
peptide: Ac-DEFDKKKIEEVNKKIEESLKKIEESDKKLEEVGSGSGK([Suc-Succinyl(4-O-cholesteryl)])-NH2
B2: Compound 51 (peptide)
peptide: Ac-SDELVNKKIEFDKKINQSLKKIEESDKKKLEAAAKK-NH2
B3: Compound 45 (peptide)
peptide: Ac-WDEFDASISQVNEKINQSLEEIRKSDELLHNEAAAKK(Succinyl(4-O-cholesteryl))-NH2
SMILES: CC[C@H](C)[C@H](NC(=O)[C@H](CO)NC(=O)[C@H](C)NC(=O)[C@H](CC(=O)O)NC(=O)[C@H](Cc1ccccc1)NC(=O)[C@H](CCC(=O)O)NC(=O)[C@H](CC(=O)O)NC(=O)[C@H](Cc1c[nH]c2ccccc12)NC(C)=O)C(=O)N[C@@H](CO)C(=O)N[C@@H](CCC(N)=O)C(=O)N[C@H](C(=O)N[C@@H](CC(N)=O)C(=O)N[C@@H](CCC(=O)O)C(=O)N[C@@H](CCCCN)C(=O)N[C@H](C(=O)N[C@@H](CC(N)=O)C(=O)N[C@@H](CCC(N)=O)C(=O)N[C@@H](CO)C(=O)N[C@@H](CC(C)C)C(=O)N[C@@H](CCC(=O)O)C(=O)N[C@@H](CCC(=O)O)C(=O)N[C@H](C(=O)N[C@@H](CCCNC(=N)N)C(=O)N[C@@H](CCCCN)C(=O)N[C@@H](CO)C(=O)N[C@@H](CC(=O)O)C(=O)N[C@@H](CCC(=O)O)C(=O)N[C@@H](CC(C)C)C(=O)N[C@@H](CC(C)C)C(=O)N[C@@H](Cc1c[nH]cn1)C(=O)N[C@@H](CC(N)=O)C(=O)N[C@@H](CCC(=O)O)C(=O)N[C@@H](C)C(=O)N[C@@H](C)C(=O)N[C@@H](C)C(=O)N[C@@H](CCCCN)C(=O)N[C@@H](CCCCNC(=O)CCC(=O)O[C@H]1CC[C@@]2(C)C(=CC[C@H]3[C@@H]4CC[C@H]([C@H](C)CCCC(C)C)[C@@]4(C)CC[C@@H]32)C1)C(N)=O)[C@@H](C)CC)[C@@H](C)CC)C(C)C
B4: Compound 16 (peptide)
peptide: Ac-SDEFDKKIEEVNKKIEESLKKIEESDKKLEAAAKK([Suc-Succinyl(4-O-cholesteryl)])-NH2
B5: Compound 13 (peptide)
peptide: Ac-WDEFDKKIEEVNKKIEESLKKIEESDKKLEAAAKK([Suc-Succinyl(4-O-cholesteryl)])-NH2
B6: Compound 50 (peptide)
peptide: Ac-SLEQVNEKINQSLAFIRKSDEINQSDEEVNKSDELLEAAAKK-NH2
B7: Compound 15 (peptide)
peptide: Ac-DEFDKKKIEEVNKKIEESLKKIEESDKKLEEVGSGSGK([Suc-Succinyl(4-O-cholesteryl)])-NH2
B8: Compound 44 (peptide)
peptide: Ac-WDEFDKKIEEVNKKIEESLKKIEESDKKLHNVEAAAKK(Succinyl(4-O-cholesteryl))-NH2
SMILES: CC[C@H](C)[C@H](NC(=O)[C@H](CCCCN)NC(=O)[C@H](CCCCN)NC(=O)[C@H](CC(C)C)NC(=O)[C@H](CO)NC(=O)[C@H](CCC(=O)O)NC(=O)[C@H](CCC(=O)O)NC(=O)[C@@H](NC(=O)[C@H](CCCCN)NC(=O)[C@H](CCCCN)NC(=O)[C@H](CC(N)=O)NC(=O)[C@@H](NC(=O)[C@H](CCC(=O)O)NC(=O)[C@H](CCC(=O)O)NC(=O)[C@@H](NC(=O)[C@H](CCCCN)NC(=O)[C@H](CCCCN)NC(=O)[C@H](CC(=O)O)NC(=O)[C@H](Cc1ccccc1)NC(=O)[C@H](CCC(=O)O)NC(=O)[C@H](CC(=O)O)NC(=O)[C@H](Cc1c[nH]c2ccccc12)NC(C)=O)[C@@H](C)CC)C(C)C)[C@@H](C)CC)C(=O)N[C@@H](CCC(=O)O)C(=O)N[C@@H](CCC(=O)O)C(=O)N[C@@H](CO)C(=O)N[C@@H](CC(=O)O)C(=O)N[C@@H](CCCCN)C(=O)N[C@@H](CCCCN)C(=O)N[C@@H](CC(C)C)C(=O)N[C@@H](Cc1c[nH]cn1)C(=O)N[C@@H](CC(N)=O)C(=O)N[C@H](C(=O)N[C@@H](CCC(=O)O)C(=O)N[C@@H](C)C(=O)N[C@@H](C)C(=O)N[C@@H](C)C(=O)N[C@@H](CCCCN)C(=O)N[C@@H](CCCCNC(=O)CCC(=O)O[C@H]1CC[C@@]2(C)C(=CC[C@H]3[C@@H]4CC[C@H]([C@H](C)CCCC(C)C)[C@@]4(C)CC[C@@H]32)C1)C(N)=O)C(C)C
B9: Compound 14 (peptide)
peptide: Ac-DEFDKKIEEVNKKIEESLKKIEESDKKLEEVNEAAAKK([Suc-Succinyl(4-O-cholesteryl)])-NH2
B10: Positive polypeptide 6 (peptide)
peptide: VFPSDEFDASISQVNEKINQSLAAIRKSDELLHNV
modifications: not fully specified; also: modifications not known
B11: Positive polypeptide 7 (peptide)
peptide: FDASISQVNEKINQSLAFIRKSDELLHNVNAGKSTTEAAAKK
modifications: not fully specified; also: modifications not known
B12: Compound 49 (peptide)
peptide: Ac-SLEQVNKKIEQSLESLKKSDKINQSLEEVNKSDELLEAAAKK-NH2
B13: Positive polypeptide 4 (peptide)
peptide: IEQVNKKIEQSLKFIEKSDKLLENVNKGKCEAAAKK
modifications: not fully specified; also: modifications not known
B14: Positive polypeptide 5 (peptide)
peptide: B13 peptide with I1L
modifications: not fully specified; also: modifications not known
B15: Positive polypeptide 1 (peptide)
peptide: SLEQVNKKIEQSLKFIEKSDKLLENGSGSGK
modifications: not fully specified; also: modifications not known
B16: Positive polypeptide 3 (peptide)
peptide: IEEVNKKIEESLKKIEESDKKLEEVNKKKEAAAKK
modifications: not fully specified; also: modifications not known
B17: Positive polypeptide 2 (peptide)
peptide: Ac-IEQVNKKIEQSLKFIEKSDKLLENVNKGK-NH2
B18: Compound 8 (peptide)
peptide: Ac-FAEFNQKINQVNEKIEESLEEIRKSDEELHNVNATT-NH2
B19: Compound 48 (peptide)
peptide: Ac-SLEQVNKINEKINKISQSLKKIEESDKKSDEVNAGLEAAAKK-NH2
B20: Compound 6 (peptide)
peptide: Ac-ADAFRLEVNDASSKINESIEESLLSLEKLHNVNATA-NH2
B21: Compound 47 (peptide)
peptide: Ac-SLEQVNKINKKIDKIEESLKKIEESDKKSLEVNKKLEAAAKK-NH2
B22: Compound 7 (peptide)
peptide: Ac-FDAFIQEINVNEDQSLEQSDELLLELHLLHSLLH-NH2
B23: Compound 9 (peptide)
peptide: Ac-WDEFDKKIEEVNKKIEESLKKIEESDKKLEEVNKKLEAAAKK(Succinyl(4-O-cholesteryl))-NH2
B24: Compound 5 (peptide)
peptide: Ac-WDEFDKKIEEVNKKIEESLKKIEESDKKLEEVNKKL-NH2

target: F protein of hPIV Type 3 (hPIV3 C243) (human Parainfluenza Virus type 3 (hPIV3 …)); test: cell-based or functional assay

Binder | EC50 (nM), plaque reduction, hPIV3 C243 on LLC-MK2 cells
B1 | 50.5 nM
B2 | 18.8 nM
B3 | 36.3 nM
B4 | 59 nM
B5 | 35.6 nM
B6 | 34.8 nM
B7 | 20.7 nM
B8 | 27.9 nM
B9 | 31.4 nM

target: F protein of hMPV virus strain B1 (human metapneumovirus (hMPV) B1); test: cell-based or functional assay

Binder | EC50 (nM), plaque reduction, hMPV B1 on Vero cells
B2 | 3.82 nM
B3 | 13.1 nM
B4 | 4.5 nM
B5 | 6.18 nM
B6 | 5.95 nM
B8 | 6.6 nM
B9 | 5.36 nM

target: F protein of hMPV virus strain A2 (human metapneumovirus (hMPV) A2); test: cell-based or functional assay

Binder | EC50 (nM), plaque reduction, hMPV A2 on Vero cells
B1 | 35.9 nM
B2 | 18.8 nM
B3 | 200 nM
B4 | 7.35 nM
B5 | 11.7 nM
B6 | 13.3 nM
B7 | 17.9 nM
B8 | 14.6 nM
B9 | 18.9 nM

target: F protein of RSV A long virus strain (Respiratory Syncytial Virus (RSV) A …, UniProt P12568 26-574); test: cell-based or functional assay
Sequence (P12568 26-574): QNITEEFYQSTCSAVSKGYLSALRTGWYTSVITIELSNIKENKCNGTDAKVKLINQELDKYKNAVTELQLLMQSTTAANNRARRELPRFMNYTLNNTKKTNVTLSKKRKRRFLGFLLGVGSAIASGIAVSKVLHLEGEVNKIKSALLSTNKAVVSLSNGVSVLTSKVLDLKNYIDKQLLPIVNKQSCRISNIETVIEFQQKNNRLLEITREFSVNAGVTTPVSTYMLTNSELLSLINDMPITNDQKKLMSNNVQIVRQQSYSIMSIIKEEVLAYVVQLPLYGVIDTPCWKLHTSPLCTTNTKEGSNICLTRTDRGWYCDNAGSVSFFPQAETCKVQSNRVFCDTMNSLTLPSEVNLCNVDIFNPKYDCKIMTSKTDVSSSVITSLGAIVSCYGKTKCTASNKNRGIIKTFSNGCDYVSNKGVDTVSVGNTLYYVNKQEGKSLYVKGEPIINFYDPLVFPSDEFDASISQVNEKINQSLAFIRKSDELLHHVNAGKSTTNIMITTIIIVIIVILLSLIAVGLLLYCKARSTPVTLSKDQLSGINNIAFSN

Binder | IC50/nM, plaque reduction, RSV A long on HEp-2 cells (Table 2, Cell fusion inhibition activity)
B1 | 19.2 nM
B10 | > 300 nM
B11 | > 300 nM
B2 | 9.9 nM
B3 | 12.2 nM
B4 | 10.3 nM
B12 | > 8000 nM
B5 | 13 nM
B6 | 15.1 nM
B13 | 190 nM
B14 | > 300 nM
B7 | 10.4 nM
B15 | 150 nM
B16 | > 300 nM
B17 | > 300 nM
B8 | 12.4 nM
B18 | 3770 nM
B19 | > 8000 nM
B20 | > 8000 nM
B9 | 9.9 nM
B21 | > 8000 nM
B22 | > 8000 nM
B23 | 95.7 nM
B24 | 1120 nM
